From paper PMC10786891, “Massively parallel profiling of RNA-targeting CRISPR-Cas13d”

T1: EsCas13d, nuclease-dead (Eubacterium siraeum, UniProt B0MS50, R295A;H300A;R849A;H854A)
T1 sequence: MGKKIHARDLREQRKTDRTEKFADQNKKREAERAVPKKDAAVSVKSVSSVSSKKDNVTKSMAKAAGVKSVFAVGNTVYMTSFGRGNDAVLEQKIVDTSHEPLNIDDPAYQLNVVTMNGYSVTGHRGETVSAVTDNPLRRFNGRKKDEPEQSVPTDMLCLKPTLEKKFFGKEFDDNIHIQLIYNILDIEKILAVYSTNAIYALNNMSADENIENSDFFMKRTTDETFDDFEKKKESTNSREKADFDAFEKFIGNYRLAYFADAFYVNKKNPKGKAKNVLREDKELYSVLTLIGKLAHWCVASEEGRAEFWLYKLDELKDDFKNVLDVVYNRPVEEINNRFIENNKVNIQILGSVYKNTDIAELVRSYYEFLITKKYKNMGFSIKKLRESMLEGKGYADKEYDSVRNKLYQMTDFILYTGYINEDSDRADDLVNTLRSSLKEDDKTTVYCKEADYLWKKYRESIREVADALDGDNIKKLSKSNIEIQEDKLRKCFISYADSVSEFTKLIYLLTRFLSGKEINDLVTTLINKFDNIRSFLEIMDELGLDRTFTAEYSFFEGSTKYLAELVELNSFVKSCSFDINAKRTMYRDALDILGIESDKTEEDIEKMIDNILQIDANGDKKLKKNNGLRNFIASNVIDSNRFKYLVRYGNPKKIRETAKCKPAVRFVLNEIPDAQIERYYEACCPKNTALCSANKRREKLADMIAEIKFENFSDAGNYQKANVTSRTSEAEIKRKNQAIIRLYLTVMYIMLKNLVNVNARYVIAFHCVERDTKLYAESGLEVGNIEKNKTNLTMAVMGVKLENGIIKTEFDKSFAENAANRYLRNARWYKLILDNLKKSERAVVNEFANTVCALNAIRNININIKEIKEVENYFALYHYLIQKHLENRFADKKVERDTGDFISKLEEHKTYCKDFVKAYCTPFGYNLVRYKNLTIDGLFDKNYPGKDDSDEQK


Target: T1, EsCas13d, nuclease-dead
Assay: crRNA (strand 1, pre-loaded); Mg2+; 40 mM Tris-HCl pH 7.5, 150 mM NaCl, 6 mM MgCl2, 1 mM DTT, 0.1% Tween-20, 0.2 mg/ml BSA; 25 C; 10 min per concentration, then washed
Conditions: tags: His6-TwinStrep-SUMO cleaved; N-terminal SNAP kept (SNAP-Surface 488); label: 3' end held by stalled T7 RNA polymerase

Binder	Kd
target 1 insG 3' of 19,insG 3' of 3 (mixed) RNA 1: CACCCGUGCAAAAAUGCAGGGGUCUAAAACUGAGCGGAUAACCUCUCUAUGG RNA 2: GGGAAUGGAUCCACAUCUACGAAUUCGUACCAUGAGAGAGGUUAUCCGCUGCACCGAGAUCGGAAGAGCACACGU	0.041 ± 0.0024 µM
target 1 insU 3' of 12,insC 3' of 12 (mixed) RNA 1: CACCCGUGCAAAAAUGCAGGGGUCUAAAACUGAGCGGAUAACCUCUCUAUGG RNA 2: GGGAAUGGAUCCACAUCUACGAAUUCGUACCAUAGAGAGGUCUUAUCCGCUCACCGAGAUCGGAAGAGCACACGU	0.0276 ± 0.0029 µM
target 1 insG 3' of 20,insG 3' of 3 (mixed) RNA 1: CACCCGUGCAAAAAUGCAGGGGUCUAAAACUGAGCGGAUAACCUCUCUAUGG RNA 2: GGGAAUGGAUCCACAUCUACGAAUUCGUACCAGUAGAGAGGUUAUCCGCUGCACCGAGAUCGGAAGAGCACACGU	0.031 ± 0.009 µM
target 1 U8G,U11C (mixed) RNA 1: CACCCGUGCAAAAAUGCAGGGGUCUAAAACUGAGCGGAUAACCUCUCUAUGG RNA 2: GGGAAUGGAUCCACAUCUACGAAUUCGUACCAUAGAGAGGCUAGCCGCUCACCGAGAUCGGAAGAGCACACGU	0.0295 ± 0.0031 µM
target 3 C6U,A18G (mixed) RNA 1: CACCCGUGCAAAAUUGCAGGGGUCUAAAACGACCUGAAUAUUUCAGAUCAAA RNA 2: GGGAAUGGAUCCACAUCUACGAAUUCGUUUUUGGUCUGAAAUAUUUAGGUCUGCAGAUCGGAAGAGCACACGU	0.0203 ± 0.00265 µM
target 3 insA 3' of 6,insA 3' of 6 (mixed) RNA 1: CACCCGUGCAAAAUUGCAGGGGUCUAAAACGACCUGAAUAUUUCAGAUCAAA RNA 2: GGGAAUGGAUCCACAUCUACGAAUUCGUUUUUGAUCUGAAAUAUUCAAAGGUCUGCAGAUCGGAAGAGCACACGU	0.00496 ± 0.000355 µM
target 3 insU 3' of 3,insA 3' of 2 (mixed) RNA 1: CACCCGUGCAAAAUUGCAGGGGUCUAAAACGACCUGAAUAUUUCAGAUCAAA RNA 2: GGGAAUGGAUCCACAUCUACGAAUUCGUUUUUGAUCUGAAAUAUUCAGGUUACUGCAGAUCGGAAGAGCACACGU	0.039 ± 0.005 µM
target 3 del22 (mixed) RNA 1: CACCCGUGCAAAAUUGCAGGGGUCUAAAACGACCUGAAUAUUUCAGAUCAAA RNA 2: GGGAAUGGAUCCACAUCUACGAAUUCGUUUUGAUCUGAAAUAUUCAGGUCUGCAGAUCGGAAGAGCACACGU	0.0103 ± 0.0012 µM
target 3 insG 3' of 7,insC 3' of 2 (mixed) RNA 1: CACCCGUGCAAAAUUGCAGGGGUCUAAAACGACCUGAAUAUUUCAGAUCAAA RNA 2: GGGAAUGGAUCCACAUCUACGAAUUCGUUUUUGAUCUGAAAUAUUGCAGGUCCUGCAGAUCGGAAGAGCACACGU	0.088 ± 0.0175 µM
target 3 C1G,U7C (mixed) RNA 1: CACCCGUGCAAAAUUGCAGGGGUCUAAAACGACCUGAAUAUUUCAGAUCAAA RNA 2: GGGAAUGGAUCCACAUCUACGAAUUCGUUUUUGAUCUGAAAUAUCCAGGUGUGCAGAUCGGAAGAGCACACGU	0.0735 ± 0.036 µM
target 3 insU 3' of 13,insU 3' of 4 (mixed) RNA 1: CACCCGUGCAAAAUUGCAGGGGUCUAAAACGACCUGAAUAUUUCAGAUCAAA RNA 2: GGGAAUGGAUCCACAUCUACGAAUUCGUUUUUGAUCUGAUAAUAUUCAGUGUCUGCAGAUCGGAAGAGCACACGU	0.0495 ± 0.0175 µM
target 3 insU 3' of 16,insU 3' of 16 (mixed) RNA 1: CACCCGUGCAAAAUUGCAGGGGUCUAAAACGACCUGAAUAUUUCAGAUCAAA RNA 2: GGGAAUGGAUCCACAUCUACGAAUUCGUUUUUGAUCUUUGAAAUAUUCAGGUCUGCAGAUCGGAAGAGCACACGU	0.0765 ± 0.012 µM
target 3 insC 3' of 12,insU 3' of 3 (mixed) RNA 1: CACCCGUGCAAAAUUGCAGGGGUCUAAAACGACCUGAAUAUUUCAGAUCAAA RNA 2: GGGAAUGGAUCCACAUCUACGAAUUCGUUUUUGAUCUGAACAUAUUCAGGUUCUGCAGAUCGGAAGAGCACACGU	0.105 ± 0.034 µM
target 3 del1,del22 (mixed) RNA 1: CACCCGUGCAAAAUUGCAGGGGUCUAAAACGACCUGAAUAUUUCAGAUCAAA RNA 2: GGGAAUGGAUCCACAUCUACGAAUUCGUUUUGAUCUGAAAUAUUCAGGUUGCAGAUCGGAAGAGCACACGU	0.029 ± 0.006 µM
target 3 insG 3' of 9,insA 3' of 2 (mixed) RNA 1: CACCCGUGCAAAAUUGCAGGGGUCUAAAACGACCUGAAUAUUUCAGAUCAAA RNA 2: GGGAAUGGAUCCACAUCUACGAAUUCGUUUUUGAUCUGAAAUAGUUCAGGUACUGCAGAUCGGAAGAGCACACGU	~0.103 µM
target 3 G3C,A11G (mixed) RNA 1: CACCCGUGCAAAAUUGCAGGGGUCUAAAACGACCUGAAUAUUUCAGAUCAAA RNA 2: GGGAAUGGAUCCACAUCUACGAAUUCGUUUUUGAUCUGAAGUAUUCAGCUCUGCAGAUCGGAAGAGCACACGU	0.061 ± 0.012 µM
target 3 insA 3' of 10,insC 3' of 10 (mixed) RNA 1: CACCCGUGCAAAAUUGCAGGGGUCUAAAACGACCUGAAUAUUUCAGAUCAAA RNA 2: GGGAAUGGAUCCACAUCUACGAAUUCGUUUUUGAUCUGAAAUACAUUCAGGUCUGCAGAUCGGAAGAGCACACGU	0.1 ± 0.0375 µM
target 3 insU 3' of 11,insC 3' of 3 (mixed) RNA 1: CACCCGUGCAAAAUUGCAGGGGUCUAAAACGACCUGAAUAUUUCAGAUCAAA RNA 2: GGGAAUGGAUCCACAUCUACGAAUUCGUUUUUGAUCUGAAAUUAUUCAGGCUCUGCAGAUCGGAAGAGCACACGU	0.058 ± 0.0095 µM
target 3 G4A,U22A (mixed) RNA 1: CACCCGUGCAAAAUUGCAGGGGUCUAAAACGACCUGAAUAUUUCAGAUCAAA RNA 2: GGGAAUGGAUCCACAUCUACGAAUUCGUUAUUGAUCUGAAAUAUUCAAGUCUGCAGAUCGGAAGAGCACACGU	0.00571 ± 0.00047 µM
target 3 C6G,A9G (mixed) RNA 1: CACCCGUGCAAAAUUGCAGGGGUCUAAAACGACCUGAAUAUUUCAGAUCAAA RNA 2: GGGAAUGGAUCCACAUCUACGAAUUCGUUUUUGAUCUGAAAUGUUGAGGUCUGCAGAUCGGAAGAGCACACGU	0.0465 ± 0.0055 µM
target 3 A11G,A18G (mixed) RNA 1: CACCCGUGCAAAAUUGCAGGGGUCUAAAACGACCUGAAUAUUUCAGAUCAAA RNA 2: GGGAAUGGAUCCACAUCUACGAAUUCGUUUUUGGUCUGAAGUAUUCAGGUCUGCAGAUCGGAAGAGCACACGU	0.07 ± 0.025 µM
target 3 insU 3' of 22,insC 3' of 19 (mixed) RNA 1: CACCCGUGCAAAAUUGCAGGGGUCUAAAACGACCUGAAUAUUUCAGAUCAAA RNA 2: GGGAAUGGAUCCACAUCUACGAAUUCGUUUUUUGCAUCUGAAAUAUUCAGGUCUGCAGAUCGGAAGAGCACACGU	0.0605 ± 0.0155 µM
target 3 insU 3' of 11,insU 3' of 6 (mixed) RNA 1: CACCCGUGCAAAAUUGCAGGGGUCUAAAACGACCUGAAUAUUUCAGAUCAAA RNA 2: GGGAAUGGAUCCACAUCUACGAAUUCGUUUUUGAUCUGAAAUUAUUCUAGGUCUGCAGAUCGGAAGAGCACACGU	0.095 ± 0.0145 µM
target 3 insG 3' of 7,insG 3' of 2 (mixed) RNA 1: CACCCGUGCAAAAUUGCAGGGGUCUAAAACGACCUGAAUAUUUCAGAUCAAA RNA 2: GGGAAUGGAUCCACAUCUACGAAUUCGUUUUUGAUCUGAAAUAUUGCAGGUGCUGCAGAUCGGAAGAGCACACGU	0.0326 ± 0.0054 µM
